# Measured values: patent US10925971B2, “Methods of treating PRLR positive breast cancer” (Regeneron Pharmaceuticals, Inc., priority 2016, dated 2021)
# B1: H1H6953N-DM1 (conjugate)
# VH: EVQLLESGGGLVQPGGTLRLSCAASGFTFSAYAMSWVRQAPGKGLEWVSSINVRAGDTYYADSVKGRFTISRDNSKNTLFLLMNSLRAEDTAAYYCAKARYSSNWGFDFWGQGTLVTVSS
# VL: DIVMTQSPDSLTVSLGARTTINCQSSQTILHSSNNHNYLAWYQQKPGLPPKLLIYWSSTRESGVPDRFSGSGSGTDFTLTISSLQAEDVAIYYCQQYSNTPYTFGQGTKLEIN
# B2: PRL: monomeric human prolactin, ligand of PRLR (protein)
# chain: LPICPGGAARCQVTLRDLFDRAVVLSHYIHNLSSEMFSEFDKRYTHGRGFITKAINSCHTSSLATPEDKEQAQQMNQKDFLSLIVSILRSWNEPLYHLVTEVRGMQEAPEAILSKAVEIEEQTKRLLEGMELIVSQVHPETKENEIYPVWSGLPSLQMADEESRLSAYYNLLHCLRRDSHKIDNYLKLLKCRIIHNNNC
# B3: H1H6782P-SMCC-DM1 (conjugate)
# VH: EVQLVESGGGLVQPGRSLRLSCAASGFTFDDYAMHWVRQAPGKGLEWVSGIIWNSGHIGYGDSVKGRFTISRDNAKKSLYLQMNSLRAEDTALYYCARDSGRYQSYFDYWGQGTLVTVSS
# VL: DIQMTQSPSTLSASVGDRVTITCRASHIISSWLAWYQQKPGKAPKVLIFKASSLESGVPSRFSGSGSGTEFTLTISSLQPDDFATYYCQQYNTYSRTFGQGTKVEIK
# Legend:
# PRLR expressing cells = test: In vitro cell viability (cell kill) assay, several cell backgrounds; assay type: cell-based, human; conditions: PC3/hPRLR and MCF7/hPRLR cell lines
# Text: (§1) PRLR-overexpressing cells, including HEK293, PC3, MCF7 and NCI-N87, were generated to assess the ability of anti-PRLR conjugated antibodies to reduce cell viability. For comparative purposes, PC3 and T47D cells with overexpressed ErbB2 were also generated, as well as an MCF7 cell line over-expressing both hPRLR and hErbB2. Briefly, Lipofectamine® 2000-mediated transfection methodology was utilized to generate HEK293 cells expressing human PRLR (HEK293/hPRLR) or human ErbB2 (HEK293/hErbB2). Lipofectamine LTX with Plus Reagent was used to generate PC3 cells expressing human PRLR (PC3/hPRLR) or human ErbB2 (PC3/hErbB2). Lentiviral-mediated transduction was utilized to generate MCF7 cells expressing human PRLR (MCF7/hPRLR), NCI-N87 cells expressing human PRLR (NCI-N87/hPRLR), T47D cells over-expressing human ErbB2 (T47D/hErbB2), and MCF7 cells expressing both human PRLR and human ErbB2 (MCF7/hPRLR/hErbB2). All lines were selected for at least two weeks in complete growth media plus appropriate selection reagents. Stably expressing populations were enriched for PRLR expression via FACS using the anti PRLR antibody Control I.
# (§2) Next, the ability of anti-PRLR-DM1 antibody-drug conjugates (i.e., anti-PRLR antibodies conjugated to DM1 via a non-cleavable linker [SMCC]) to reduce cell viability was determined using in vitro cell based assays. Cells were seeded in PDL-coated 96 well plates at 1500 to 10000 cells per well in complete growth media and allowed to grow overnight. For cell viability curves, ADCs or free DM1 (as the methyl disulfide derivative DM1-SMe) were added to the cells at final concentrations ranging from 500 nM to 5 pM and incubated for 3 days. The 293, PC3 and T47D cells were incubated with CCK8 (Dojindo, Rockville, Md.) for the final 1-3 hours and the absorbance at 450 nm (OD450) was determined on a Flexstation3 (Molecular Devices, Sunnyvale, Calif.). MCF7 cells were treated with Hoechst 33342 nuclear stain while being fixed with 4% formaldehyde. Images were acquired on the ImageXpress micro XL (Molecular Devices, Sunnyvale, Calif.) and nuclear counts were determined via Columbus image analysis software (Perkin Elmer, Shelton, Conn.). Background OD450 values (PC3, 293, and T47D) or nuclear counts (MCF7) from digitonin (40 nM) treated cells was subtracted from all wells and viability was expressed as a percentage of the untreated controls. IC50 values were determined from a four-parameter logistic equation over a 10-point response curve (GraphPad Prism).
# MCF7/hPRLR/hErbB2 cells = test: In vitro cell viability (cell kill) assay; assay type: cell-based, human; conditions: MCF/PRLR + ErbB2; Table 17
# Text: as §1, §2
# (§3) The potency of anti-PRLR conjugated antibodies compared with a similarly conjugated antibody to the co-expressed ErbB2 cell surface target was also assessed.
# PC3/hErbB2 cells = test: In vitro cell viability (cell kill) assay; assay type: cell-based, human; conditions: PC3/ErbB2; Table 15
# Text: as §1, §2, §3
# HEK293/hErbB2 cells = test: In vitro cell viability (cell kill) assay; assay type: cell-based, human; conditions: 293/ErbB2; Table 14
# Text: as §1, §2, §3
# PC3 cells = test: In vitro cell viability (cell kill) assay, CCK8; assay type: cell-based, human; conditions: Table 11, 3 days
# Summary of the method: (§4)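 Viability of hPRLR-expressing 293, PC3 and MCF7 cells is measured after 3 days with non-cleavable-linker DM1 ADCs (final 500 nM–5 pM). IC50 comes from a four-parameter logistic fit of background-corrected percent-of-untreated values over 10 points.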
# [1] = test system: HEK293/hPRLR (293/hPRLR) cells; test: In vitro cell viability (cell kill) assay, CCK8; assay type: cell-based, human
# Summary of the method: as §4
# HEK293 (293) cells = test: In vitro cell viability (cell kill) assay, CCK8; assay type: cell-based, human
# Summary of the method: as §4
# T47D cells [2] = test: In vitro cell viability (cell kill) assay, CCK8; assay type: cell-based, human; conditions: for % Kill: T47D
# Procedure: as §2
# NCI-N87/hPRLR cells = test: In vitro cell viability (cell kill) assay; assay type: cell-based, human; conditions: NCI-N87/PRLR; Table 17
# Text: PRLR-overexpressing cells, including HEK293, PC3, MCF7 and NCI-N87, were generated to assess the ability of anti-PRLR conjugated antibodies to reduce cell viability. For comparative purposes, PC3 and T47D cells with overexpressed ErbB2 were also generated, as well as an MCF7 cell line over-expressing both hPRLR and hErbB2. Briefly, Lipofectamine® 2000-mediated transfection methodology was utilized to generate HEK293 cells expressing human PRLR (HEK293/hPRLR) or human ErbB2 (HEK293/hErbB2). Lipofectamine LTX with Plus Reagent was used to generate PC3 cells expressing human PRLR (PC3/hPRLR) or human ErbB2 (PC3/hErbB2). […]
# Next, the ability of anti-PRLR-DM1 antibody-drug conjugates (i.e., anti-PRLR antibodies conjugated to DM1 via a non-cleavable linker [SMCC]) to reduce cell viability was determined using in vitro cell based assays. […] The 293, PC3 and T47D cells were incubated with CCK8 (Dojindo, Rockville, Md.) for the final 1-3 hours and the absorbance at 450 nm (OD450) was determined on a Flexstation3 (Molecular Devices, Sunnyvale, Calif.). […] Images were acquired on the ImageXpress micro XL (Molecular Devices, Sunnyvale, Calif.) and nuclear counts were determined via Columbus image analysis software (Perkin Elmer, Shelton, Conn.). […] IC50 values were determined from a four-parameter logistic equation over a 10-point response curve (GraphPad Prism).
# MCF7/PRLR tumors = test: MCF7/PRLR breast cancer xenograft, tumor size and tumor growth inhibition; assay type: in vivo, NCr nude mice; conditions: for Average Tumor Growth Inhibition (%) / Final Tumor size mm^3 (mean ± SEM): MCF7/PRLR tumors TRIAL #1, NCr Nude mice, Day 52
# Summary of the method: (§5)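 MCF7/PRLR cells in mammary fat pad of female NCr nude mice, PC3/PRLR in flank of male SCID, T47D #11 in flank of female CB17 SCID, all with estrogen pellets.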
# MCF7 (MCF7/ATCC) cells = test: In vitro cell viability (cell kill) assay, nuclear counts; assay type: cell-based, human; conditions: MCF7; Table 16
# Text: as §1, §2
# PC3/PRLR tumors = test: PC3/PRLR xenograft, tumor size and tumor growth inhibition; assay type: in vivo, SCID mice; conditions: for Average Tumor Growth Inhibition (%) / Final Tumor size mm^3 (mean ± SEM): PC3/PRLR tumors TRIAL #1, SCID mice, Day 63
# Summary of the method: as §5
# SK-BR-3 cells = test: In vitro cell viability (cell kill) assay; assay type: cell-based, human; conditions: Table 16
# [3] = target: cynomolgus monkey PRLR (dimeric) binding to PRL; test: ELISA-based blocking of PRLR binding to immobilized human PRL; set-up: species or system Macaca fascicularis; conditions: plates coated with 1 μg/mL PRL; read-out: EC50, monkey PRLR binding to captured PRL
# Procedure: (§6) ELISA-based blocking assays were developed to determine the ability of H1H6958N2 and H1H6958N2-DM1 to block binding of human and cynomolgus monkey PRLR to immobilized human PRL. Dimeric forms of human or cynomolgus monkey (Macaca fascicularis) PRLR and monomeric human PRL were used in this assay. To generate initial dose-response curves, human or monkey PRLR at concentrations ranging from 3.38 pM to 200 nM was added to the plates previously coated in 1 μg/mL PRL. After 1-hour incubation, captured PRLR was detected with HRP-conjugated goat anti-Fcγ antibody and visualized with TMB colorimetric substrate by measuring absorbance at 450 nm. […] Mixtures were then added to plates coated with in 1 μg/mL PRL and captured PRLR was detected as described above. Data were analyzed using a four-parameter logistic equation over an 11-point response curve in GraphPad Prism software and IC50 values were calculated.
# [4] = target: human PRLR (dimeric) binding to PRL (Homo sapiens, UniProt P16471); test: as above; conditions: plates coated with 1 μg/mL PRL; read-out: EC50, human PRLR binding to captured PRL
# Procedure: as §6
# [5] = test system: PRLR in HEK293/PRLR/STAT5-Luc cells; test: STAT5 luciferase reporter assay, blocking of PRL-induced PRLR signaling (2 nM PRL); assay type: cell-based; conditions: PRL dose response, no antibody; read-out: EC50, stimulation of human PRLR signaling
# Procedure: The capacity of H1H6958N2 and H1H6958N2-DM1 to block human PRL-induced PRLR signaling was determined in a luciferase reporter assay using the HEK293 cell line engineered to constitutively express PRLR and stably transduced with a lucifierase reporter construct comprising 5 tandem STAT5 binding sites derived from the promoter of the human interleukin-2 receptor α gene [STAT5 response element (×5)-luciferase] (John et al., The EMBO Journal, 1996, 15(20): 5627-5635). […] Plates were incubated at 37° C. and 5% CO2 for 5 hours and equilibrated to room temperature for 10 minutes. Luciferase activity was again measured using the ONE-Glo substrate and measuring luminescence.
# T47D cells [6] = test: Cell kill in the presence of PRLR ligand PRL (15 nM); assay type: cell-based, human; conditions: Table 13, + 15 nM PRL
# Procedure: as §2
# cynomolgus monkey PRLR (dimeric) binding to PRL, sequence (as listed by the source): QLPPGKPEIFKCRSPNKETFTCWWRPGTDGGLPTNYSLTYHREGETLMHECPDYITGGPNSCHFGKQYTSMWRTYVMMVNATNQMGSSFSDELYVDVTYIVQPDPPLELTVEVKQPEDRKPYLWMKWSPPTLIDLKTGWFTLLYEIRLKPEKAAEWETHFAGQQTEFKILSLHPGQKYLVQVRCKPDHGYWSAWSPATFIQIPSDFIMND
# human PRLR (dimeric) binding to PRL, sequence (P16471 with tags, fused parts or gaps limits assumed): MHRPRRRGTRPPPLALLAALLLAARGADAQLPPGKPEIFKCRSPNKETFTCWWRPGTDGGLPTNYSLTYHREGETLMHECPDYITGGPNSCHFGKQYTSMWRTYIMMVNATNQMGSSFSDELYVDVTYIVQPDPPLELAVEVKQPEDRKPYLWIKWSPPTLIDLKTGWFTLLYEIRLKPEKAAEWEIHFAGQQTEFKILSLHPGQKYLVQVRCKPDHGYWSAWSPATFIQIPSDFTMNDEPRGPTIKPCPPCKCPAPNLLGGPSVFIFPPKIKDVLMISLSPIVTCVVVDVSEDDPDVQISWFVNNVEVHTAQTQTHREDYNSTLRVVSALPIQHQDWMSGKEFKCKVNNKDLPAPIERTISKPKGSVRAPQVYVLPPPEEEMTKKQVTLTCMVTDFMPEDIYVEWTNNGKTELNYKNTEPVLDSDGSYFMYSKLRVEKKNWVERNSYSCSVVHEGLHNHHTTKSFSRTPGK
molecule,measurement,setting,value
B1,"cell killing, non-cleavable DM1 ADCs versus cleavable MMAE ADCs",PRLR expressing cells,nearly equivalent cell killing
same,% Kill,MCF7/hPRLR/hErbB2 cells,77%
same,% Kill,PC3/hErbB2 cells,73%
same,% Kill,HEK293/hErbB2 cells,98%
same,IC50,HEK293/hErbB2 cells,120 nM
same,% Kill,PC3 cells,78%
same,IC50,PC3 cells,110 nM
same,% Kill,"[1]; 293/PRLR, Table 14",93%
same,percent killing,[1]; 293/hPRLR cells,93%
same,% Kill,"HEK293 (293) cells; 293, Table 11, 3 days",88%
same,% Kill,"HEK293 (293) cells; 293, Table 14",92%
same,percent killing,T47D cells [2]; T47D cells,78%
same,% Kill,T47D cells [2]; Table 16,78%
same,% Kill,NCI-N87/hPRLR cells,94%
same,Average Tumor Growth Inhibition (%),MCF7/PRLR tumors; multi-dose 5 mg/kg,120%
same,Final Tumor size mm^3 (mean ± SEM),MCF7/PRLR tumors; multi-dose 5 mg/kg,107 ± 45 mm^3
same,Average Tumor Growth Inhibition (%),MCF7/PRLR tumors; multi-dose 15 mg/kg,133%
same,Final Tumor size mm^3 (mean ± SEM),MCF7/PRLR tumors; multi-dose 15 mg/kg,0 ± 0 mm^3
same,MCF7/PRLR tumor growth,"MCF7/PRLR tumors; first multi-dose trial, 5 and 15 mg/kg",potently inhibited MCF7/PRLR tumor growth
same,% Kill,MCF7 (MCF7/ATCC) cells,74%
same,Average Tumor Growth Inhibition (%),PC3/PRLR tumors; multi-dose 5 mg/kg,23%
same,Final Tumor size mm^3 (mean ± SEM),PC3/PRLR tumors; multi-dose 5 mg/kg,1058 ± 138 mm^3
same,Average Tumor Growth Inhibition (%),PC3/PRLR tumors; multi-dose 15 mg/kg,39%
same,Final Tumor size mm^3 (mean ± SEM),PC3/PRLR tumors; multi-dose 15 mg/kg,892 ± 53 mm^3
same,PC3/PRLR tumor growth,"PC3/PRLR tumors; multi-dose, especially at 15 mg/kg",demonstrated inhibition of tumor growth
same,% Kill,SK-BR-3 cells,77%
B2,EC50,[3],5.7 nM
same,EC50,[4],4.9 nM
same,EC50,[5],2.1 nM
B3,% Kill,T47D cells [6],97%
same,% Kill,"HEK293 (293) cells; HEK293, Table 13, + 15 nM PRL",78%
same,% Kill,"HEK293 (293) cells; HEK293, Table 13, without PRL",83%
same,% Kill,"T47D cells [2]; Table 13, without PRL",98%
